# Data as given in US20150344570A1 (published 2015).
# T1: FcγRIIa H (FcγRIIa type H, His at position 131), extracellular domain with C-terminal His tag (human, UniProt P12318 34-217)
# T1 construct: extracellular domain; also called FcgRIIa H; 2aH
# T1 sequence (looked up): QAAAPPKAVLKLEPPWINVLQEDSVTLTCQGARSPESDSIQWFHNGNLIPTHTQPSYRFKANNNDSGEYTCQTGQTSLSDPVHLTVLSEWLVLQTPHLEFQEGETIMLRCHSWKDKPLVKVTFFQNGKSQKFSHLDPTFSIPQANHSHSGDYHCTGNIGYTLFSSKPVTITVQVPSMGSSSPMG
# B1: GpH7-A5/GpH7-B3 variant K326_10E/GpL16-k0 (antibody, human IgG1, kappa)
# heavy 1: not shown
# heavy 2: not shown
# light: DIVMTQSPLSLPVTPGEPASISCQASESLVHSNRNTYLHWYLQKPGQSPQLLIYKVSNRFSGVPDRFSGSGSGTDFTLKISRVEAEDVGVYYCSQNTHVPPTFGQGTKVEIERTVAAPSVFIFPPSDEQLKSGTASVVCLLNNFYPREAKVQWKVDNALQSGNSQESVTEQDSKDSTYSLSSTLTLSKADYEKHKVYACEVTHQGLSSPVTKSFNRGEC
# notes: one H chain mutated; also called He Ab
# B2: GpH7-A5/GpH7-B3 variant I332_10E/GpL16-k0 (antibody, human IgG1, kappa)
# heavy 1: not shown
# heavy 2: not shown
# light: B1 light
# notes: as for B1
# B3: GpH7-A5/GpH7-B3 variant H268_09D/GpL16-k0 (antibody, human IgG1, kappa)
# heavy 1: not shown
# heavy 2: not shown
# light: B1 light
# notes: as for B1
# B4: GpH7-B3 variant S337_16H/GpL16-k0 (antibody, human IgG1, kappa)
# heavy: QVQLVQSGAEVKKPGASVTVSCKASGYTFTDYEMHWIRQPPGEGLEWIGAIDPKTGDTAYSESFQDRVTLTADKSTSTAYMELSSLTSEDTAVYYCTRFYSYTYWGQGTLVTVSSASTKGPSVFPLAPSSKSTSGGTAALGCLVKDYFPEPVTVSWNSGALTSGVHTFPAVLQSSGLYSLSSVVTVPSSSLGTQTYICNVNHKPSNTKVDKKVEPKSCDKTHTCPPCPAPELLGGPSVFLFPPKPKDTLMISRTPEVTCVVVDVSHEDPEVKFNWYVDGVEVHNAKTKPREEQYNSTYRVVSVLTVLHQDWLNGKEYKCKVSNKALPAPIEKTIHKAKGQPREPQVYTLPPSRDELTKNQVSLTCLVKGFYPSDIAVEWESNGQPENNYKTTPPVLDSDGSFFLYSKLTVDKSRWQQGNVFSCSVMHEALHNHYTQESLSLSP
# light: B1 light
# notes: both H chains mutated; also called Ho Ab
# B5: GpH7-A5/GpH7-B3 variant I332_14T/GpL16-k0 (antibody, human IgG1, kappa)
# heavy 1: not shown
# heavy 2: not shown
# light: B1 light
# notes: as for B1
# B6: GpH7-B3 variant L328_14T/GpL16-k0 (antibody, human IgG1, kappa)
# heavy: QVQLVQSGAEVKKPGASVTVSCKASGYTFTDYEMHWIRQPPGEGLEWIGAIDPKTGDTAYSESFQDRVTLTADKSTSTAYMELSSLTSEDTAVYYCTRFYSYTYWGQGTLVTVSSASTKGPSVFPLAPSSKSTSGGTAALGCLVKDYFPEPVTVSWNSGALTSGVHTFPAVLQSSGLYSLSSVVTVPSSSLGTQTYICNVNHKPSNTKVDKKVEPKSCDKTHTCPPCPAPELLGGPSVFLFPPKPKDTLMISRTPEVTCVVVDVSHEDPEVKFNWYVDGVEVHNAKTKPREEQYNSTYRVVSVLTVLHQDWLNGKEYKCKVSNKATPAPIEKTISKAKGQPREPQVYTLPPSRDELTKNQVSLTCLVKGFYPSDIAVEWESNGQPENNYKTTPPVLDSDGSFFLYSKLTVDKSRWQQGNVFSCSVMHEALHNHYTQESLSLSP
# light: B1 light
# notes: as for B4
# B7: GpH7-B3 variant P271_01G/GpL16-k0 (antibody, human IgG1, kappa)
# heavy: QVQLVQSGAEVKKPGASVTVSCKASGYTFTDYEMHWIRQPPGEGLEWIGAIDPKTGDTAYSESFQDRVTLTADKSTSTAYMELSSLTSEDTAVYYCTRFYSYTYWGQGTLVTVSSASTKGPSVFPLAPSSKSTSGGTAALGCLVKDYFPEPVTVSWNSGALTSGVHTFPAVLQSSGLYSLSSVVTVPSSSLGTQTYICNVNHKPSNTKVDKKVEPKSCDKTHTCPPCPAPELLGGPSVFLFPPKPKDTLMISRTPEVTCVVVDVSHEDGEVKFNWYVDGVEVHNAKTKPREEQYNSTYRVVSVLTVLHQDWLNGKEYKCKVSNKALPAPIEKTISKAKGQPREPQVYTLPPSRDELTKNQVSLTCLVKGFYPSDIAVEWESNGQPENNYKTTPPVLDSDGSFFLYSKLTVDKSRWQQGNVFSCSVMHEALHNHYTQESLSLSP
# light: B1 light
# notes: as for B4
# B8: GpH7-B3 variant Q295_07I/GpL16-k0 (antibody, human IgG1, kappa)
# heavy: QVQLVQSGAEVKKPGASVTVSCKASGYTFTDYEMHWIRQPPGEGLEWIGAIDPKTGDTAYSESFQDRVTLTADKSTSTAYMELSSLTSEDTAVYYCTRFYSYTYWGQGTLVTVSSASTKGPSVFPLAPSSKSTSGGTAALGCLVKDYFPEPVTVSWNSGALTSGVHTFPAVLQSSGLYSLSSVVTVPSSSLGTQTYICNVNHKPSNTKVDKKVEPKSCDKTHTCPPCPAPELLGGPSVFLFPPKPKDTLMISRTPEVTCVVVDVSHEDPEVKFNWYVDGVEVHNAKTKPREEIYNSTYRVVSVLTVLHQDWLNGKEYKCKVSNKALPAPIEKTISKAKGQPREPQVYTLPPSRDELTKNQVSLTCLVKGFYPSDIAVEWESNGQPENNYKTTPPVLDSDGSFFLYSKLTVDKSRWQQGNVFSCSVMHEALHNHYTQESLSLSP
# light: B1 light
# notes: as for B4
# B9: GpH7-B3 variant T335_15Y/GpL16-k0 (antibody, human IgG1, kappa)
# heavy: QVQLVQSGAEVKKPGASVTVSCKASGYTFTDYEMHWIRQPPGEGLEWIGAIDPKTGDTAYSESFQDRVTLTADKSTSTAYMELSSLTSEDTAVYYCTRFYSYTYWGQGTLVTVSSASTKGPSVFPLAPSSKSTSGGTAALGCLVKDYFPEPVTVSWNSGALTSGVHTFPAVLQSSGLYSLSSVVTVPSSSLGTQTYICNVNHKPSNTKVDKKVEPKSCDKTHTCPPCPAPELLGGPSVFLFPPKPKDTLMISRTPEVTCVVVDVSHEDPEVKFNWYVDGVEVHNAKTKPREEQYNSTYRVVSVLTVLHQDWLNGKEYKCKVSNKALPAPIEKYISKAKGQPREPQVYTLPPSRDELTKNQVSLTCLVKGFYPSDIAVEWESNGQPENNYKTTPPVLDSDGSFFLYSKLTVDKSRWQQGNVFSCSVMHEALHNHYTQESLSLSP
# light: B1 light
# notes: as for B4
# B10: GpH7-B3 variant T335_07I/GpL16-k0 (antibody, human IgG1, kappa)
# heavy: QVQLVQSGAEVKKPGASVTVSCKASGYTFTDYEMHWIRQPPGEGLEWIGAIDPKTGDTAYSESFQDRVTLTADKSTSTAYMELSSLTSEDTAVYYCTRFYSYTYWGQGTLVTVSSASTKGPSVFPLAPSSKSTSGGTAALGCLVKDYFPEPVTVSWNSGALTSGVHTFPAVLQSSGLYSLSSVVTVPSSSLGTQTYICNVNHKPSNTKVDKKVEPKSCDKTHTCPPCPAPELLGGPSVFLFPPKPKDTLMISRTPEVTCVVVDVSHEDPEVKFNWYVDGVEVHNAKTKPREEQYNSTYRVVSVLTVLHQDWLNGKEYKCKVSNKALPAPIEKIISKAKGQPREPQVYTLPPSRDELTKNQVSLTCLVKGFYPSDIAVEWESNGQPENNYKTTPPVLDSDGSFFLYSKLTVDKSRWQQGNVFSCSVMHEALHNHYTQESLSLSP
# light: B1 light
# notes: as for B4
# B11: GpH7-A5/GpH7-B3 variant A330_12R/GpL16-k0 (antibody, human IgG1, kappa)
# heavy 1: not shown
# heavy 2: not shown
# light: B1 light
# notes: as for B1
# B12: GpH7-A5/GpH7-B3 variant I332_15Y/GpL16-k0 (antibody, human IgG1, kappa)
# heavy 1: not shown
# heavy 2: not shown
# light: B1 light
# notes: as for B1
# B13: GpH7-A5/GpH7-B3 variant G236_07I/GpL16-k0 (antibody, human IgG1, kappa)
# heavy 1: not shown
# heavy 2: not shown
# light: B1 light
# notes: as for B1
# B14: GpH7-A5/GpH7-B3 variant K326_09D/GpL16-k0 (antibody, human IgG1, kappa)
# heavy 1: not shown
# heavy 2: not shown
# light: B1 light
# notes: as for B1
# B15: GpH7-A5/GpH7-B3 variant H268_13S/GpL16-k0 (antibody, human IgG1, kappa)
# heavy 1: not shown
# heavy 2: not shown
# light: B1 light
# notes: as for B1
# B16: GpH7-B3 variant T335_13S/GpL16-k0 (antibody, human IgG1, kappa)
# heavy: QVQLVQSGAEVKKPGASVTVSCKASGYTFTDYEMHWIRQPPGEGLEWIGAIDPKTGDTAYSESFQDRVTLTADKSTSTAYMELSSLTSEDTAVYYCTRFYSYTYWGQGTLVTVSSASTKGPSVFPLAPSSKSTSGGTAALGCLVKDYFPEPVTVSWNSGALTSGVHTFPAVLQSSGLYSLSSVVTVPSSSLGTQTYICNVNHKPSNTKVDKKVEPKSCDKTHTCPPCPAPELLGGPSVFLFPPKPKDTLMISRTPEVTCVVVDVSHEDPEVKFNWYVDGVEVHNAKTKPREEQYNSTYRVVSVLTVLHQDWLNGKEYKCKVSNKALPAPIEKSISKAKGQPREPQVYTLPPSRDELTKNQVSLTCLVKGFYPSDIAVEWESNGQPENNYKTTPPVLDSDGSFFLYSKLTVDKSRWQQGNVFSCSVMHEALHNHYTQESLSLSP
# light: B1 light
# notes: as for B4
# B17: GpH7-B3 variant T335_01G/GpL16-k0 (antibody, human IgG1, kappa)
# heavy: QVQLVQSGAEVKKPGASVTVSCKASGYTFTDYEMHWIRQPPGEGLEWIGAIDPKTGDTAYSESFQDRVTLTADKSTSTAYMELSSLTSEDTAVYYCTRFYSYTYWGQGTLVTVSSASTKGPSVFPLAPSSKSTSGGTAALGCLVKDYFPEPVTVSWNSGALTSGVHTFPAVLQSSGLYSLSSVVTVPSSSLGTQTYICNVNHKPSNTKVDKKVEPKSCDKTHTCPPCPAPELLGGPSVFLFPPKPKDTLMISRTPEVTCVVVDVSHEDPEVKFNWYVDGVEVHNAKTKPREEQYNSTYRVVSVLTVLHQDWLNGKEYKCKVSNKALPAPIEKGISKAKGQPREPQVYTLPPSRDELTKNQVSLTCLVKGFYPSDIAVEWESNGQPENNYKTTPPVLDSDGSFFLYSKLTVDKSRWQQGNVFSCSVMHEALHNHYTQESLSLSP
# light: B1 light
# notes: as for B4
# B18: GpH7-A5/GpH7-B3 variant K326_06M/GpL16-k0 (antibody, human IgG1, kappa)
# heavy 1: not shown
# heavy 2: not shown
# light: B1 light
# notes: as for B1
# B19: GpH7-A5/GpH7-B3 variant I332_03V/GpL16-k0 (antibody, human IgG1, kappa)
# heavy 1: not shown
# heavy 2: not shown
# light: B1 light
# notes: as for B1
# B20: GpH7-B3 variant S324_02A/GpL16-k0 (antibody, human IgG1, kappa)
# heavy: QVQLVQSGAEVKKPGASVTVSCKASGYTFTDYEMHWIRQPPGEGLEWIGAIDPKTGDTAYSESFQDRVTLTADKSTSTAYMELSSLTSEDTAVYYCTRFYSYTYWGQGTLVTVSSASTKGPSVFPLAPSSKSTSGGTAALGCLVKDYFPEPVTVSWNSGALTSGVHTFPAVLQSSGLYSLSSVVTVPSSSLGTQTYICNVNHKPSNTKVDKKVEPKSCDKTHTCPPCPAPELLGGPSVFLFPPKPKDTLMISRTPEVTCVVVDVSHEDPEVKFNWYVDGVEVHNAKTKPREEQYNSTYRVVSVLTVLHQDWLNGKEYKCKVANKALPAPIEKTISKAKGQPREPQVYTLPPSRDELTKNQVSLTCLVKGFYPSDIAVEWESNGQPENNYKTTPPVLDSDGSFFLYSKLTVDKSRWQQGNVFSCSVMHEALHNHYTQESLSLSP
# light: B1 light
# notes: as for B4
# B21: GpH7-B3 variant S337_10E/GpL16-k0 (antibody, human IgG1, kappa)
# heavy: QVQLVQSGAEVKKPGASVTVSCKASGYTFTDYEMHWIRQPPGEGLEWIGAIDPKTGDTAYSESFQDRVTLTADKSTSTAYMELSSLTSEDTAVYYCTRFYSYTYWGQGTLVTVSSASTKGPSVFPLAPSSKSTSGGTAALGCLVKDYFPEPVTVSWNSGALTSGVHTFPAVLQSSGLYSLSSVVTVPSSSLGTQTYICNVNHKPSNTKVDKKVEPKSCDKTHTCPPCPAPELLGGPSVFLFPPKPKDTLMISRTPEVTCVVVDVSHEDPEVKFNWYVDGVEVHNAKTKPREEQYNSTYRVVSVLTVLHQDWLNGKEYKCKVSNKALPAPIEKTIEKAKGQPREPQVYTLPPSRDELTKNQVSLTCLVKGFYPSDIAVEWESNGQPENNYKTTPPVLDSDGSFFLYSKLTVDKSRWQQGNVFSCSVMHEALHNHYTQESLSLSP
# light: B1 light
# notes: as for B4
# B22: GpH7-B3 variant S337_14T/GpL16-k0 (antibody, human IgG1, kappa)
# heavy: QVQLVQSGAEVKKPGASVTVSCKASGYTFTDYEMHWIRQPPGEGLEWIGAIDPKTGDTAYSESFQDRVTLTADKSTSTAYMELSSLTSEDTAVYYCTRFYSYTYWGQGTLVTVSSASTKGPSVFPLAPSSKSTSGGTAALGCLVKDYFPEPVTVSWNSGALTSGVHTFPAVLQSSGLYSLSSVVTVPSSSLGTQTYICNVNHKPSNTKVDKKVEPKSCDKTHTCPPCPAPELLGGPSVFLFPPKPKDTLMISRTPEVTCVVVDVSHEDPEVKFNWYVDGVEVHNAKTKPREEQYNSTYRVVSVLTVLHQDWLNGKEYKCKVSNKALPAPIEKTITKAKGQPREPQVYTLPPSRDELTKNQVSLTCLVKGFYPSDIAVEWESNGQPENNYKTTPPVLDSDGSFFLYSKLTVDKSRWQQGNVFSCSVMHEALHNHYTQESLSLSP
# light: B1 light
# notes: as for B4
# B23: GpH7-A5/GpH7-B3 variant I332_18N/GpL16-k0 (antibody, human IgG1, kappa)
# heavy 1: not shown
# heavy 2: not shown
# light: B1 light
# notes: as for B1
# B24: GpH7-B3 variant T335_10E/GpL16-k0 (antibody, human IgG1, kappa)
# heavy: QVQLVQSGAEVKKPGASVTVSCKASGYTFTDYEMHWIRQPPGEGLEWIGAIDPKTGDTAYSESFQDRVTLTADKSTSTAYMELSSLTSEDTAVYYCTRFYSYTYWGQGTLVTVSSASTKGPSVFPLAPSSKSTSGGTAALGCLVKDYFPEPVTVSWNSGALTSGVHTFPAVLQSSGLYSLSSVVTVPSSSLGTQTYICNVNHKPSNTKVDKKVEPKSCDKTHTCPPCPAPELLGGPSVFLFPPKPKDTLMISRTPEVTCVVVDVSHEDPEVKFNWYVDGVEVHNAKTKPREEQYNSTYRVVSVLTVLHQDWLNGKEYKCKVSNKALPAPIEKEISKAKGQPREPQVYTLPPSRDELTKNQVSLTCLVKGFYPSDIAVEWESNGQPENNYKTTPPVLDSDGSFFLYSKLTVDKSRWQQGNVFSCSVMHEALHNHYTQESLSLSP
# light: B1 light
# notes: as for B4
# B25: GpH7-A5/GpH7-B3 variant I332_13S/GpL16-k0 (antibody, human IgG1, kappa)
# heavy 1: not shown
# heavy 2: not shown
# light: B1 light
# notes: as for B1
# B26: GpH7-A5/GpH7-B3 variant I332_09D/GpL16-k0 (antibody, human IgG1, kappa)
# heavy 1: not shown
# heavy 2: not shown
# light: B1 light
# notes: as for B1
# B27: GpH7-B3 variant S324_06M/GpL16-k0 (antibody, human IgG1, kappa)
# heavy: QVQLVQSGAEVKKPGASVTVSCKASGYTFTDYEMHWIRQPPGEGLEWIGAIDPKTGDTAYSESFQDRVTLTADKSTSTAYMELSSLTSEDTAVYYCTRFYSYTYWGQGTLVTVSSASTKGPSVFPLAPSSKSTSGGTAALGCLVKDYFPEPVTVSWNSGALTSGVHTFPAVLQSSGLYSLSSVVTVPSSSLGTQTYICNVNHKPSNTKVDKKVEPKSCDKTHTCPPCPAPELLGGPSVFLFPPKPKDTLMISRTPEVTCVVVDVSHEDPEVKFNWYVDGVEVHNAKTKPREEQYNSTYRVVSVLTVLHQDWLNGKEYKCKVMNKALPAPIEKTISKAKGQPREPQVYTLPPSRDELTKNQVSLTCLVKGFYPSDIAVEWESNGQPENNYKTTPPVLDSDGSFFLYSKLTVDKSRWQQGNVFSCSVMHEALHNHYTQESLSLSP
# light: B1 light
# notes: as for B4
# Key:
# [1] = biological target: T1, FcγRIIa H (FcγRIIa type H, His at …); assay: SPR Biacore, relative binding, GpH7-A5/GpH7-B3/GpL16-k0 (HeCon Ab)=100
# Experimental: (§1) Analysis of interaction between objective antibody and the FcγR was carried out using Biacore T100 (GE Healthcare). HBS-EP+ (GE Healthcare) was used as the running buffer, and the measurement temperature was set to 25° C. Chips produced by immobilizing the antigen peptide by the amine coupling method to a Series S Sencor Chip CM5 (GE Healthcare), or alternatively, chips produced by allowing preliminarily biotinylated antigen peptides to interact with and immobilize onto a Series S Sensor Chip SA (certified) (GE Healthcare) were used. Antibodies of interest were captured onto an antigen peptide-immobilized chip, and allowed to interact to each FcγR diluted with running buffer. To regenerate and repeatedly use the chip, the antibodies captured on the chip were washed off by reacting 10 mM glycine-HCl, pH 1.5.
# [2] = biological target: T1, FcγRIIa H (FcγRIIa type H, His at …); assay: SPR Biacore, relative binding, GpH7-B3/GpL16-k0 (HoCon Ab)=100
# Experimental: as §1
Binder,He/Con_2aH [1],Ho/Con_2aH [2]
B1,102 % of control,
B2,108 % of control,
B3,133 % of control,
B4,,102 % of control
B5,115 % of control,
B6,,110 % of control
B7,,110 % of control
B8,,108 % of control
B9,,102 % of control
B10,,105 % of control
B11,108 % of control,
B12,115 % of control,
B13,115 % of control,
B14,110 % of control,
B15,112 % of control,
B16,,101 % of control
B17,,101 % of control
B18,103 % of control,
B19,105 % of control,
B20,,102 % of control
B21,,101 % of control
B22,,105 % of control
B23,110 % of control,
B24,,105 % of control
B25,110 % of control,
B26,118 % of control,
B27,,123 % of control
